Data published in patent US9580733B2, “Methods of producing 6-carbon chemicals via methyl-ester shielded carbon chain elongation” (INVISTA North America S.á r.l., priority 2012, dated 2017).

B1: SEQ ID NO 7: Segniliparus rotundus carboxylate reductase (Genbank Accession No. ADG98140.1); in Example 2 the same label is printed for a ω-transaminase (protein, listed as Segniliparus rotundus)
chain: MTQSHTQGPQASAAHSRLARRAAELLATDPQAAATLPDPEVVRQATRPGLRLAERVDAILSGYADRPALGQRSFQTVKDPITGRSSVELLPTFDTITYRELRERATAIASDLAHHPQAPAKPGDFLASIGFISVDYVAIDIAGVFAGLTAVPLQTGATLATLTAITAETAPTLFAASIEHLPTAVDAVLATPSVRRLLVFDYRAGSDEDREAVEAAKRKIADAGSSVLVDVLDEVIARGKSAPKAPLPPATDAGDDSLSLLIYTSGSTGTPKGAMYPERNVAHFWGGVWAAAFDEDAAPPVPAINITFLPLSHVASRLSLMPTLARGGLMHFVAKSDLSTLFEDLKLARPTNLFLVPRVVEMLYQHYQSELDRRGVQDGTREAEAVKDDLRTGLLGGRILTAGFGSAPLSAELAGFIESLLQIHLVDGYGSTEAGPVWRDGYLVKPPVTDYKLIDVPELGYFSTDSPHPRGELAIKTQTILPGYYKRPETTAEVFDEDGFYLTGDVVAQIGPEQFAYVDRRKNVLKLSQGEFVTLAKLEAAYSSSPLVRQLFVYGSSERSYLLAVIVPTPDALKKFGVGEAAKAALGESLQKIARDEGLQSYEVPRDFIIETDPFTVENGLLSDARKSLRPKLKEHYGERLEAMYKELADGQANELRDIRRGVQQRPTLETVRRAAAAMLGASAAEIKPDAHFTDLGGDSLSALTFSNFLHDLFEVDVPVGVIVSAANTLGSVAEHIDAQLAGGRARPTFATVHGKGSTTIKASDLTLDKFIDEQTLEAAKHLPKPADPPRTVLLTGANGWLGRFLALEWLERLAPAGGKLITIVRGKDAAQAKARLDAAYESGDPKLAGHYQDLAATTLEVLAGDFSEPRLGLDEATWNRLADEVDFISHPGALVNHVLPYNQLFGPNVAGVAEIIKLAITTRIKPVTYLSTVAVAAGVEPSALDEDGDIRTVSAERSVDEGYANGYGNSKWGGEVLLREAHDRTGLPVRVFRSDMILAHQKYTGQVNATDQFTRLVQSLLATGLAPKSFYELDAQGNRQRAHYDGIPVDFTAESITTLGGDGLEGYRSYNVFNPHRDGVGLDEFVDWLIEAGHPITRIDDYDQWLSRFETSLRGLPESKRQASVLPLLHAFARPGPAVDGSPFRNTVFRTDVQKAKIGAEHDIPHLGKALVLKYADDIKQLGLL
B2: SEQ ID NO. 17: Escherichia coli pimeloyl-[acp] methyl ester esterase (GenBank Accession No. AAC76437.1), C-terminal His-tagged (protein, listed as Escherichia coli)
chain: MNNIWWQTKGQGNVHLVLLHGWGLNAEVWRCIDEELSSHFTLHLVDLPGFGRSRGFGALSLADMAEAVLQQAPDKAIWLGWSLGGLVASQIALTHPERVQALVTVASSPCFSARDEWPGIKPDVLAGFQQQLSDDFQRTVERFLALQTMGTETARQDARALKKTVLALPMPEVDVLNGGLEILKTVDLRQPLQNVSMPFLRLYGYLDGLVPRKVVPMLDKLWPHSESYIFAKAAHAPFISHPAEFCHLLVALKQRV
modifications: C-terminal His tag

Tests used:
Assay type in all cases: biochemical
[1] = ω-transaminase activity assay, reverse direction, 6-aminohexanoate to adipate semialdehyde; details: cell free extract, 10 mM 6-aminohexanoate, 10 mM pyruvate, 25° C., 24 h, vs empty vector control, FIG. 15
Protocol: (§1) A nucleotide sequence encoding a His-tag was added to the genes from Chromobacterium violaceum, Pseudomonas aeruginosa, Pseudomonas syringae, Rhodobacter sphaeroides, and Vibrio fluvialis encoding the ω-transaminases of SEQ ID NOs: 7, 8, 9, 10 and 12, respectively (see FIGS. 7E and 7F) such that N-terminal HIS tagged ω-transaminases could be produced. Each of the resulting modified genes was cloned into a pET21a expression vector under control of the T7 promoter and each expression vector was transformed into a BL21[DE3] E. coli host. The resulting recombinant E. coli strains were cultivated at 37° C. in a 250 mL shake flask culture containing 50 mL LB media and antibiotic selection pressure, with shaking at 230 rpm. Each culture was induced overnight at 16° C. using 1 mM IPTG.
(§2) The pellet from each induced shake flask culture was harvested via centrifugation. Each pellet was resuspended and lysed via sonication. The cell debris was separated from the supernatant via centrifugation and the cell free extract was used immediately in enzyme activity assays.
Enzyme activity assays in the reverse direction (i.e., 6-aminohexanoate to adipate semialdehyde) were performed in a buffer composed of a final concentration of 50 mM HEPES buffer (pH=7.5), 10 mM 6-aminohexanoate, 10 mM pyruvate and 100 μM pyridoxyl 5′ phosphate. Each enzyme activity assay reaction was initiated by adding cell free extract of the ω-transaminase gene product or the empty vector control to the assay buffer containing the 6-aminohexanoate and incubated at 25° C. for 24 h, with shaking at 250 rpm. The formation of L-alanine from pyruvate was quantified via RP-HPLC.

[2] = ω-transaminase activity assay, forward direction, adipate semialdehyde to 6-aminohexanoate; details: cell free extract, 10 mM adipate semialdehyde, 10 mM L-alanine, 25° C., 4 h, vs empty vector control, FIG. 16
Protocol: as §1, §2
Enzyme activity in the forward direction (i.e., adipate semialdehyde to 6-aminohexanoate) was confirmed for the transaminases of SEQ ID NO 7, SEQ ID NO 8, SEQ ID NO 9, SEQ ID NO 10 and SEQ ID NO 12. Enzyme activity assays were performed in a buffer composed of a final concentration of 50 mM HEPES buffer (pH=7.5), 10 mM adipate semialdehyde, 10 mM L-alanine and 100 μM pyridoxyl 5′ phosphate. Each enzyme activity assay reaction was initiated by adding a cell free extract of the ω-transaminase gene product or the empty vector control to the assay buffer containing the adipate semialdehyde and incubated at 25° C. for 4 h, with shaking at 250 rpm. The formation of pyruvate was quantified via RP-HPLC.

[3] = Carboxylate reductase activity assay, adipate to adipate semialdehyde; details: enhanced by gene product of sfp, 2 mM adipate, room temperature, 20 min, vs empty vector control, FIG. 10
Protocol: A nucleotide sequence encoding a HIS-tag was added to the genes from Segniliparus rugosus and Segniliparus rotundus that encode the carboxylate reductases of SEQ ID NOs: 5 and 7, respectively (see FIGS. 7C and 7E), such that N-terminal HIS tagged carboxylate reductases could be produced. Each of the modified genes was cloned into a pET Duet expression vector along with a sfp gene encoding a HIS-tagged phosphopantetheine transferase from Bacillus subtilis, both under the T7 promoter. Each expression vector was transformed into a BL21[DE3] E. coli host and the resulting recombinant E. coli strains were cultivated at 37° C. in a 250 mL shake flask culture containing 50 mL LB media and antibiotic selection pressure, with shaking at 230 rpm. Each culture was induced overnight at 37° C. using an auto-induction media.
The pellet from each induced shake flask culture was harvested via centrifugation. Each pellet was resuspended and lysed via sonication, and the cell debris was separated from the supernatant via centrifugation. […]
Enzyme activity assays (i.e., from adipate to adipate semialdehyde) were performed in triplicate in a buffer composed of a final concentration of 50 mM HEPES buffer (pH=7.5), 2 mM adipate, 10 mM MgCl2, 1 mM ATP and 1 mM NADPH. […] The consumption of NADPH was monitored by absorbance at 340 nm.

[4] = Carboxylate reductase activity assay, adipate semialdehyde to hexanedial; details: enhanced by gene product of sfp, 2 mM adipate semialdehyde, room temperature, 20 min, vs empty vector control, FIG. 13
Protocol: The N-terminal His-tagged carboxylate reductase of SEQ ID NO 7 (see Example 4 and FIG. 7E) was assayed using adipate semialdehyde as substrate. The enzyme activity assay was performed in triplicate in a buffer composed of a final concentration of 50 mM HEPES buffer (pH=7.5), 2 mM adipate semialdehyde, 10 mM MgCl2, 1 mM ATP and 1 mM NADPH. The enzyme activity assay reaction was initiated by adding purified carboxylate reductase and phosphopantetheine transferase or the empty vector control to the assay buffer containing the adipate semialdehyde and then incubated at room temperature for 20 min. The consumption of NADPH was monitored by absorbance at 340 nm.

[5] = Pimeloyl-[acp] methyl ester methylesterase activity assay, adipyl-CoA methyl ester to adipyl-CoA; details: 10 μM enzyme, 5 mM adipyl-CoA methyl ester, pH 7.0, 30° C., 1 h, FIG. 20
Protocol: A sequence encoding an C-terminal His-tag was added to the gene from Escherichia coli encoding the pimeloyl-[acp] methyl ester methylesterase of SEQ ID NO: 17 (see FIG. 7G) such that C-terminal HIS tagged pimeloyl-[acp] methyl ester methylesterase could be produced. The resulting modified gene was cloned into a pET28b+ expression vector under control of the T7 promoter and the expression vector was transformed into a BL21[DE3] E. coli host. The resulting recombinant E. coli strain was cultivated at 37° C. in a 500 mL shake flask culture containing 100 mL LB media and antibiotic selection pressure, with shaking at 230 rpm. Each culture was induced overnight at 18° C. using 0.3 mM IPTG.
The pellet from each induced shake flask culture was harvested via centrifugation. Each pellet was resuspended and lysed via sonication. The cell debris was separated from the supernatant via centrifugation. The pimeloyl-[acp] methyl ester methylesterase was purified from the supernatant using Ni-affinity chromatography, buffer exchanged and concentrated into 20 mM HEPES buffer (pH=7.5) via ultrafiltration and stored at 4° C.
Enzyme activity assays converting adipyl-CoA methyl ester to adipyl-CoA were performed in triplicate in a buffer composed of a final concentration of 25 mM Tris.HCl buffer (pH=7.0) and 5 [mM] adipyl-CoA methyl ester. […] The formation of adipyl-CoA was quantified via LC-MS.

| Molecule | ω-transaminase activity for converting 6-aminohexanoate to adipate semialdehyde (formation of L-alanine from pyruvate, RP-HPLC) [1] | ω-transaminase activity for converting adipate semialdehyde to 6-aminohexanoate (formation of pyruvate, RP-HPLC) [2] | carboxylate reductase activity for converting adipate to adipate semialdehyde (consumption of NADPH, absorbance at 340 nm) [3] | carboxylate reductase activity for converting adipate semialdehyde to hexanedial (consumption of NADPH, absorbance at 340 nm) [4] | conversion of adipyl-CoA methyl ester to adipyl-CoA by pimeloyl-[acp] methyl ester methylesterase (LC-MS) [5] |
| --- | --- | --- | --- | --- | --- |
| B1 | accepted 6-aminohexanote as substrate | accepted adipate semialdehyde as substrate | accepted adipate as substrate | accepted adipate semialdehyde as substrate | – |
| B2 | – | – | – | – | accepted adipyl-CoA methyl ester as substrate |
